Assay results taken from patent US6716813B2, “Use of antimicrobial proteins and peptides for the treatment of otitis media and paranasal sinusitis” (priority 2000, dated 2004).

Tests used:
[1] = test system: M. catarrhalis strain 035E; type: cell-based, Moraxella catarrhalis; settings: 100 mM NaCl in gel
Description: (§1) The bacteria used in the following examples were cultured as follows: Stocks of NTHi12 and M. catarrhalis […] (generous gift of Dr. Xin-Xing Gu) were maintained at -80° C. For experiments, the bacteria were plated on chocolate agar and incubated overnight at 37° C. in 5% CO2. A single colony was then picked and transferred to 10 ml of brain heart infusion (BHI, Becton Dickinson, Cockeysville, Md.), supplemented with hemin (10 μg/ml, Sigma, St. Louis, Mo.) and NAD (10 μg/ml, Sigma, St. Louis, Mo.), and allowed to grow overnight. In the morning, 1/10 volume of the overnight culture was transferred to fresh medium and incubated for 3-hours. The subculture was then washed twice with 10 mM sodium phosphate and the O.D. at 620 nm was determined. For the S. pneumoniae serotypes 3 and 6B (generous gift of Dr. Xin-Xing Gu), a 50 μl aliquot of the -80° C. stock was thawed on ice, added to 10 ml of Todd-Hewitt broth (THB, Becton Dickinson, Cockeysville, Md.) and cultured overnight. […] The subculture was then washed twice with 10 mM sodium phosphate and the O.D. at 620 nm was determined. […] The diameter of the zones of inhibition produced by each of the antimicrobial molecules against the OM pathogens (NTHi, M. catarrhalis and S. pneumoniae) was then measured in three separate experiments and the average and standard deviation were calculated. […]

[2] = test system: S. pneumoniae serotype 6B; type: cell-based, Streptococcus pneumoniae
Description: (§2) The bacteria used in the following examples were cultured as follows: Stocks of NTHi12 and M. catarrhalis […] (generous gift of Dr. Xin-Xing Gu) were maintained at -80° C. For experiments, the bacteria were plated on chocolate agar and incubated overnight at 37° C. in 5% CO2. A single colony was then picked and transferred to 10 ml of brain heart infusion (BHI, Becton Dickinson, Cockeysville, Md.), supplemented with hemin (10 μg/ml, Sigma, St. Louis, Mo.) and NAD (10 μg/ml, Sigma, St. Louis, Mo.), and allowed to grow overnight. In the morning, 1/10 volume of the overnight culture was transferred to fresh medium and incubated for 3-hours. The subculture was then washed twice with 10 mM sodium phosphate and the O.D. at 620 nm was determined. For the S. pneumoniae serotypes 3 and 6B (generous gift of Dr. Xin-Xing Gu), a 50 μl aliquot of the -80° C. stock was thawed on ice, added to 10 ml of Todd-Hewitt broth (THB, Becton Dickinson, Cockeysville, Md.) and cultured overnight. One tenth of the volume of the overnight culture was then transferred to fresh medium and incubated for 3-hours. The subculture was then washed twice with 10 mM sodium phosphate and the O.D. at 620 nm was determined. The radial assay method of […] and coworkers was used, with minor modifications ([…] et al., 1991). The subcultured bacteria (4×10^6 CFU/10 ml underlay gel) were mixed with melted underlay gel at 42° C. (0.1×culture broth-BHI for NTHi and Moraxella and THB for S. pneumoniae-10 mM sodium phosphate, 0.8% low electroendosmosis (EEO)-type agarose) and poured into 8 cm×8 cm square petri plates. The gel was allowed to solidify in the petri plates and wells were punched out with a calibrated 200 μl micropipette tip, cut off at the 50 μl mark (approximately 3 mm). The antimicrobial peptides and proteins were dissolved in 0.01% acetic acid and 4 μl was added to each well. The plates were then incubated for 3 hours at 37° C. in the 5% CO2 incubator. They were next overlaid with the overlay gel (0.5×culture broth, 10 mM sodium phosphate, 0.8% low EEO-type agarose) and covered. The plates were then allowed to incubate overnight at 37° C. in a 5% CO2. The diameter of the zones of inhibition produced by each of the antimicrobial molecules against the OM pathogens (NTHi, M. catarrhalis and S. pneumoniae) was then measured in three separate experiments and the average and standard deviation were calculated. Physiologically, salt concentrations vary depending on the site. However, typically they can be as high as 150 mM. Thus, the salt sensitivity of the antimicrobial molecules was tested. NaCl was added to the gel in Example 2 to obtain a final concentration of 100 mM.

S. pneumoniae serotype 3 = type: cell-based, Streptococcus pneumoniae
Description: as §2

NTHi strain12 = type: cell-based, nontypeable Haemophilus influenzae; settings: 100 mM NaCl in gel
Description: as §1

B1: lactoferrin (protein, UniProt P02788 20-710, looked up)
Lactotransferrin: GRRRSVQWCAVSQPEATKCFQWQRNMRKVRGPPVSCIKRDSPIQCIQAIAENRADAVTLDGGFIYEAGLAPYKLRPVAAEVYGTERQPRTHYYAVAVVKKGGSFQLNELQGLKSCHTGLRRTAGWNVPIGTLRPFLNWTGPPEPIEAAVARFFSASCVPGADKGQFPNLCRLCAGTGENKCAFSSQEPYFSYSGAFKCLRDGAGDVAFIRESTVFEDLSDEAERDEYELLCPDNTRKPVDKFKDCHLARVPSHAVVARSVNGKEDAIWNLLRQAQEKFGKDKSPKFQLFGSPSGQKDLLFKDSAIGFSRVPPRIDSGLYLGSGYFTAIQNLRKSEEEVAARRARVVWCAVGEQELRKCNQWSGLSEGSVTCSSASTTEDCIALVLKGEADAMSLDGGYVYTAGKCGLVPVLAENYKSQQSSDPDPNCVDRPVEGYLAVAVVRRSDTSLTWNSVKGKKSCHTAVDRTAGWNIPMGLLFNQTGSCKFDEYFSQSCAPGSDPRSNLCALCIGDEQGENKCVPNSNERYYGYTGAFRCLAENAGDVAFVKDVTVLQNTDGNNNEAWAKDLKLADFALLCLDGKRKPVTEARSCHLAMAPNHAVVSRMDKVERLKQVLLHQQAKFGRNGSDCPDKFCLFQSETKNLLFNDNTECLARLHGKTTYEKYLGPQYVAGITNLKKCSTSPLLEACEFLRK
In the case of B1, the “effect of salt on the growth inhibitory effect against M. catarrhalis” value [1] is reported as “completely blocked”, the “effect of salt on the growth inhibitory effect against S. pneumoniae serotype 6B” value ([2]; 100 mM NaCl in gel) is reported as “completely blocked” and the “effect on growth of S. pneumoniae serotype 6B” value ([2]; 10 and 40 μg, equivalent to 2.5 and 10 mg/ml) is reported as “enhancement of the growth”. The “effect on growth of S. pneumoniae serotype 3” value (S. pneumoniae serotype 3; 10 μg, equivalent to 2.5 mg/ml) was “enhancement of the growth”, the “effect of salt on the growth inhibitory effect against S. pneumoniae serotype 3” value (S. pneumoniae serotype 3; 100 mM NaCl in gel) was “completely blocked” and the “effect of salt on the growth inhibitory effect against NTHi” value (NTHi strain12) was “completely blocked”.
